Measurements from publication PMC6778148.

Molecular target: fluorescein-labelled divalent stargazin-derived peptide ligand
Experiment: fluorescence polarisation; direct titration: 50 nM fluorescein-labelled stargazin ligand (divalent or monovalent) against increasing concentrations of PDZ domains; apparent KD

B1: SAP102 tandem PDZ domains 1 and 2 (SAP102-12), from pET-NO (domain or fragment)
chain: FKYEEIVLERGNSGLGFSIAGGIDNPHVPDDPGIFITKIIPGGAAAMDGRLGVNDCVLRVNEVDVSEVVHSRAVEALKEAGPVVRLVVRRRQPPPETIMEVNLLKGPKGLGFSIAGGIGNQHIPGDNSIYITKIIEGGAAQKDGRLQIGDRLLAVNNTNLQDVRHEEAVASLKNTSDMVYLKVAKPGSL
Kd: 175 nM
